According to PMC8406418 (2021):

Biological target: T1, kappa-opioid receptor (KOR-EGFP) (Mus musculus, UniProt P33534)
T1 chain: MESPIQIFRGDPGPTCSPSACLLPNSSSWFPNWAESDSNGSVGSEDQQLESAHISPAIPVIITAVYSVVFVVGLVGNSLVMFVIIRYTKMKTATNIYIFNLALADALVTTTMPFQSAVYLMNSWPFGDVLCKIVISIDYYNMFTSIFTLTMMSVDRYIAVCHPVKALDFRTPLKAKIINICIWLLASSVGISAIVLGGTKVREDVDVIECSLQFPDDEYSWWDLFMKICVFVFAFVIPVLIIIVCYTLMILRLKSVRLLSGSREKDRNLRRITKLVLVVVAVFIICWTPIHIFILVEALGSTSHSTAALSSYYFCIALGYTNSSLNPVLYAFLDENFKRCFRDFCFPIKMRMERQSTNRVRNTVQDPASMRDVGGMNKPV
Test: radioligand displacement ([3H]-diprenorphine)

Ki: 0.3 nM
B1: dynorphin A1-13 1-13 (peptide)
chain: MAWQGLVLAACLL
